Measured values as given in patent CN111956606A (JIANGSU QUANXIN BIOMEDICAL CO LTD, dated 2020).
Blank lines part the entries; values can stand above or below the binder they belong to.

What was measured:
[1] = biological target: T1, 人白介素23(Human interleukin 23，hIL-23) (human, UniProt Q9NPF7 20-189; P29460 23-328); assay: SPR, Biacore T200, antibody captured on Protein A chip, IL-23 as analyte, 25℃, 1:1 model
T1 construct: The signal peptides were probably absent from the protein in the assay; also called 人IL-23
T1 sequence 1: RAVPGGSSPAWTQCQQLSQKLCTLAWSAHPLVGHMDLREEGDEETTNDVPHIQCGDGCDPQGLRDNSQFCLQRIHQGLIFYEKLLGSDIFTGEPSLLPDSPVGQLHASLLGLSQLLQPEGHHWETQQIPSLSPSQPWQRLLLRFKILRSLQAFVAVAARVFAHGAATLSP
T1 sequence 2: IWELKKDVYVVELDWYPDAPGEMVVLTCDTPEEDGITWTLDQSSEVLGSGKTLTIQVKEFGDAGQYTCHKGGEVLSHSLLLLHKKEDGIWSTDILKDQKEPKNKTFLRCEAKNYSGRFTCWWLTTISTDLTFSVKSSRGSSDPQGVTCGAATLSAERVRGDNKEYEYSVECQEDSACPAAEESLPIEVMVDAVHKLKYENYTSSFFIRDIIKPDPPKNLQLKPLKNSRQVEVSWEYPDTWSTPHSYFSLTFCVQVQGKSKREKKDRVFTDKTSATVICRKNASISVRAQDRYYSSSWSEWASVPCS

[2] = biological target: T1, 人白介素23(Human interleukin 23，hIL-23); assay: cell-based or functional assay

Kd [1]: 0.063 nM
抑制IL-23诱导的人NK细胞释放IFN-γ活性 IC50 [2]: 16.8 ng/mL
抑制IL-23诱导的小鼠脾脏细胞释放IL-17A活性 IC50 [2]: 13.5 ng/mL
B1: Guselkumab (antibody, V domains shown)
VH: EVQLVQSGAEVKKPGESLKISCKGSGYSFSNYWIGWVRQMPGKGLEWMGIIDPSNSYTRYSPSFQGQVTISADKSISTAYLQWSSLKASDTAMYYCARWYYKPFDVWGQGTLVTVSS
VL: QSVLTQPPSVSGAPGQRVTISCTGSSSNIGSGYDVHWYQQLPGTAPKLLIYGNSKRPSGVPDRFSGSKSGTSASLAITGLQSEDEADYYCASWTDGLSLVVFGGGTKLTVLG

Kd [1]: 0.052 nM
koff [1]: 3.7e-05 s⁻¹
kon [1]: 706000 M⁻¹ s⁻¹
抑制IL-23诱导的人NK细胞释放IFN-γ活性 IC50 [2]: 11.1 ng/mL
抑制IL-23诱导的小鼠脾脏细胞释放IL-17A活性 IC50 [2]: 8.43 ng/mL
B2: Risankizumab (antibody, V domains shown)
VH: QVQLVQSGAEVKKPGSSVKVSCKASGYTFTDQTIHWMRQAPGQGLEWIGYIYPRDDSPKYNENFKGKVTITADKSTSTAYMELSSLRSEDTAVYYCAIPDRSGYAWFIYWGQGTLVTVSS
VL: DIQMTQSPSSLSASVGDRVTITCKASRDVAIAVAWYQQKPGKVPKLLIYWASTRHTGVPSRFSGSGSRTDFTLTISSLQPEDVADYFCHQYSSYPFTFGSGTKLEIKR
抑制IL-23诱导的HEK Blue TM IL-23细胞中STAT3磷酸化活性 IC50 [2]: 3.51 ng/mL

Kd [1]: 0.101 nM
koff [1]: 3.5e-05 s⁻¹
kon [1]: 366000 M⁻¹ s⁻¹
抑制IL-23诱导的人NK细胞释放IFN-γ活性 IC50 [2]: 10.4 ng/mL
抑制IL-23诱导的小鼠脾脏细胞释放IL-17A活性 IC50 [2]: 11.7 ng/mL
B3: 抗人白介素23单克隆抗体QX004N(HZD90-32) (antibody, human IgG1, kappa, V domains shown)
VH: EVQLVESGGGLVQPGGSLRLSCAASGFSLSNHEMSWVRQAPGKGLEWIGIITTSDTTYYATWAKGRFTISRDNSKNTLYLQMNSLRAEDTAVYYCARVDIVLLSVTSRIWGQGTLVTVSS
VL: DVVMTQSPSSLSASVGDRVTITCQASQSVSTYLSWYQQKPGKAPKLLIYGASNLESGVPSRFSGSGSGTDFTLTISSLQPEDFATYYCQSGYVFAGLTFGGGTKVEIKR
抑制IL-23诱导的HEK Blue TM IL-23细胞中STAT3磷酸化活性 IC50 [2]: 3.21 ng/mL
